Measurements as given in publication PMC6287933 (Methods in enzymology, 2018).

Biological target: T1, Methylobacterium extorquens (Mex) PqqE (Methylobacterium extorquens, UniProt P71517 1-384)
T1 sequence (looked up): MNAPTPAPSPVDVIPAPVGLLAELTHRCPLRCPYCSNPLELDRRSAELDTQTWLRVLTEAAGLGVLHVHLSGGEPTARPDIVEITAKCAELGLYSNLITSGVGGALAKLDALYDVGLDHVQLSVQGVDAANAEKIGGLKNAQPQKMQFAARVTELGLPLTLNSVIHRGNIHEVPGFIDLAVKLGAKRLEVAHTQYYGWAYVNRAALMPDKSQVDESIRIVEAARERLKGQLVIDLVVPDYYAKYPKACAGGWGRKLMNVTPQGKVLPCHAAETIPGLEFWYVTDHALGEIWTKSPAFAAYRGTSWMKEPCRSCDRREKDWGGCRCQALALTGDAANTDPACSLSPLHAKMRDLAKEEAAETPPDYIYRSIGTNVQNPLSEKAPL
Experiment: native MS

stoichiometry N: 1
B1: Methylobacterium extorquens (Mex) PqqD (domain or fragment, Methylobacterium extorquens AM1, UniProt Q49150 280-372, looked up)
chain: EPTAFSGSDVPRLPRGVRLRFDEVRNKHVLLAPERTFDLDDNAVAVLKLVDGRNTVSQIAQILGQTYDADPAIIEADILPMLAGLAQKRVLER
